Measured values taken from article PMC3958483, “Fine Specificity and Molecular Competition in SLAM Family Receptor Signalling” (PLoS ONE, 2014).
pKd: −log10 of the molar value.

What was measured:
Assay in all cases: SPR; biotinylated phosphopeptides immobilised on streptavidin chip (about 25 RU single, 50 RU tandem motifs); soluble recombinant protein injected; 37°C; HBS-EP; equilibrium binding (Table 4; same-day purification not given)
[1] = biological target: CD244 ITSM4 phosphopeptide (human)
[2] = biological target: CD244 ITSM2 phosphopeptide (human)
[3] = biological target: CD244 ITSM3 phosphopeptide (human)

Chain of SAP (recombinant full-length human SAP) (O60880 whole entry): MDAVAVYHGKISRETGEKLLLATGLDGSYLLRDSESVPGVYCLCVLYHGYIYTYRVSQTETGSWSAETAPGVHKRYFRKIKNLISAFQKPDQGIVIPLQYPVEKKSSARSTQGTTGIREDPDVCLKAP

pKd [1]: 5.72 | pKd [2]: 7.70 | pKd [3]: 7.10
Substance: SAP (recombinant full-length human SAP) (from UniProt O60880 1-128) (natural protein)
